This data set deals with the molecule itself. In words: crystal structure; hGSTA1 (13 mg/ml) mixed with GSH and PEITC, 6 h at 4°C; sitting drop, 20% PEG 3350, 0.2 M sodium acetate; 1.93 Å, space group C2.

B1: human alpha class glutathione S-transferase of subunit type 1 (hGSTA1), Cys112-PEITC adduct, with GS-PEITC bound (enzyme)
chain: AEKPKLHYFNARGRMESTRWLLAAAGVEFEEKFIKSAEDLDKLRNDGYLMFQQVPMVEIDGMKLVQTRAILNYIASKYNLYGKDIKERALIDMYIEGIADLGEMILLLPVCPPEEKDAKLALIKEKIKNRYFPAFEKVLKSHGQDYLVGNKLSRADIHLVELLYYVEELDSSLISSFPLLKALKTRISNLPTVKKFLQPGSPRKPPMDEKSLEEARKIFRF
modifications: Cys112 side chain covalently modified by PEITC (phenethyl isothiocyanate)
notes: glutathione S-transferase alpha 1 (hGSTA1), human; In the crystal the active site holds the small-molecule product GS-PEITC; also called hGSTA1-PEITC; hGSTA1:GS-PEITC; source: prepared as described [11,12]
For B1, the binding result was “binds”.

The values above are taken from paper PMC5042466, “Irreversible Inhibition of Glutathione S-Transferase by Phenethyl Isothiocyanate (PEITC), a Dietary Cancer Chemopreventive Phytochemical” (PLoS ONE, 2016).
